T1: CIB1-CreC (UniProt Q8GY61)
T1 sequence (Q8GY61 whole entry, looked up): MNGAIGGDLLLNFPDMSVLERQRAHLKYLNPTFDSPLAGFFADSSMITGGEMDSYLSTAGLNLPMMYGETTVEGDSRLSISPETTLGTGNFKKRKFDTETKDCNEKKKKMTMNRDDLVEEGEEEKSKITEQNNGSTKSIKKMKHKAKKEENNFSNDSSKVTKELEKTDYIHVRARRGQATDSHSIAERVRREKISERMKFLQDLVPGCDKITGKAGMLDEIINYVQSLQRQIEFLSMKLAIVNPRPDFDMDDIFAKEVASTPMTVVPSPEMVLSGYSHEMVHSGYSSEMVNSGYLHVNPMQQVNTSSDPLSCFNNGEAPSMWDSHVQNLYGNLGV

B1: VP16-CIB1 (natural protein, UniProt Q8GY61 1-335, looked up)
chain: T1 sequence (Q8GY61 whole entry, looked up)

Key:
CIB1-CreC = biological target: T1, CIB1-CreC
LexABD-CRY2(535) = LexABD-CRY2(535) (Arabidopsis thaliana, UniProt Q96524 1-535); assay: two-hybrid

Row | Molecule | Cre recombination with extended 24 hour illumination (CIB1-CreC) | fold reduction in dark activity against LexABD-CRY2PHR (LexABD-CRY2(535))
1 | CRY2(L348F)-CreN (from UniProt Q96524 1-612; P06956 1-104) | > 50% | 
2 | B1 |  | 26 fold

Source: PMC4871718 (Nature chemical biology, 2016)
